Assay results from PMC9012456 (Science Advances, 2022).

B1: KaiC-pSpT (KaiC fully phosphorylated at S431 and T432) (natural protein)
chain: MTSAEMTSPNNNSEHQAIAKMRTMIEGFDDISHGGLPIGRSTLVSGTSGTGKTLFSIQFLYNGIIEFDEPGVFVTFEETPQDIIKNARSFGWDLAKLVDEGKLFILDASPDPEGQEVVGGFDLSALIERINYAIQKYRARRVSIDSVTSVFQQYDASSVVRRELFRLVARLKQIGATTVMTTERIEEYGPIARYGVEEFVSDNVVILRNVLEGERRRRTLEILKLRGTSHMKGEYPFTITDHGINIFPLGAMRLTQRSSNVRVSSGVVRLDEMCGGGFFKDSIILATGATGTGKTLLVSRFVENACANKERAILFAYEESRAQLLRNAYSWGMDFEEMERQNLLKIVCAYPESAGLEDHLQIIKSEINDFKPARIAIDSLSALARGVSNNAFRQFVIGVTGYAKQEEITGLFTNTSDQFMGAHSITDSHISTITDTIILLQYVEIRGEMSRAINVFKMRGSWHDKAIREFMISDKGPDIKDSFRNFERIISGSPTRITVDEKSELSRIVRGVQEKGPES
modifications: phosphorylated S431 (pS431), phosphorylated T432 (pT432)
B2: KaiC-pST (KaiC phosphorylated at S431 only) (natural protein)
chain: MTSAEMTSPNNNSEHQAIAKMRTMIEGFDDISHGGLPIGRSTLVSGTSGTGKTLFSIQFLYNGIIEFDEPGVFVTFEETPQDIIKNARSFGWDLAKLVDEGKLFILDASPDPEGQEVVGGFDLSALIERINYAIQKYRARRVSIDSVTSVFQQYDASSVVRRELFRLVARLKQIGATTVMTTERIEEYGPIARYGVEEFVSDNVVILRNVLEGERRRRTLEILKLRGTSHMKGEYPFTITDHGINIFPLGAMRLTQRSSNVRVSSGVVRLDEMCGGGFFKDSIILATGATGTGKTLLVSRFVENACANKERAILFAYEESRAQLLRNAYSWGMDFEEMERQNLLKIVCAYPESAGLEDHLQIIKSEINDFKPARIAIDSLSALARGVSNNAFRQFVIGVTGYAKQEEITGLFTNTSDQFMGAHSITDSHISTITDTIILLQYVEIRGEMSRAINVFKMRGSWHDKAIREFMISDKGPDIKDSFRNFERIISGSPTRITVDEKSELSRIVRGVQEKGPES
modifications: phosphorylated S431 (pS431)
B3: KaiC T432V mutant (KaiC-SV) (natural protein)
chain: MTSAEMTSPNNNSEHQAIAKMRTMIEGFDDISHGGLPIGRSTLVSGTSGTGKTLFSIQFLYNGIIEFDEPGVFVTFEETPQDIIKNARSFGWDLAKLVDEGKLFILDASPDPEGQEVVGGFDLSALIERINYAIQKYRARRVSIDSVTSVFQQYDASSVVRRELFRLVARLKQIGATTVMTTERIEEYGPIARYGVEEFVSDNVVILRNVLEGERRRRTLEILKLRGTSHMKGEYPFTITDHGINIFPLGAMRLTQRSSNVRVSSGVVRLDEMCGGGFFKDSIILATGATGTGKTLLVSRFVENACANKERAILFAYEESRAQLLRNAYSWGMDFEEMERQNLLKIVCAYPESAGLEDHLQIIKSEINDFKPARIAIDSLSALARGVSNNAFRQFVIGVTGYAKQEEITGLFTNTSDQFMGAHSITDSHISVITDTIILLQYVEIRGEMSRAINVFKMRGSWHDKAIREFMISDKGPDIKDSFRNFERIISGSPTRITVDEKSELSRIVRGVQEKGPES
B4: KaiA (natural protein)
chain: MLSQIAICIWVESTAILQDCQRALSADRYQLQVCESGEMLLEYAQTHRDQIDCLILVAANPSFRAVVQQLCFEGVVVPAIVVGDRDSEDPDEPAKEQLYHSAELHLGIHQLEQLPYQVDAALAEFLRLAPVETMADHIMLMGANHDPELSSQQRDLAQRLQERLGYLGVYYKRDPDRFLRNLPAYESQKLHQAMQTSYREIVLSYFSPNSNLNQSIDNFVNMAFFADVPVTKVVEIHMELMDEFAKKLRVEGRSEDILLDYRLTLIDVIAHLCEMYRRSIPRET
B5: KaiB (natural protein)
chain: MSPRKTYILKLYVAGNTPNSVRALKTLKNILEVEFQGVYALKVIDVLKNPQLAEEDKILATPTLAKVLPLPVRRIIGDLSDREKVLIGLDLLYGELQDSDDF

Legend:
crystal structure = biological target: the molecule itself; assay: crystal structure
[1] = biological target: B3; assay: SEC-MALS

| Binder | stoichiometry N (crystal structure) | binding result [1] | also measured |
| --- | --- | --- | --- |
| B1 | 6 |  |  |
| B2 | 6 |  |  |
| B3 |  |  | binding result (crystal structure): binds |
| B4 |  | binds |  |
| B5 |  | binds |  |
